Reference: the supplement of paper PMC12764529
± gives the half width of the 95% confidence interval.

How the values were obtained:
[1] = folding stability dG unfold from trypsin proteolysis; higher = more stable
Procedure, shortened: (§1)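 K50 was inferred by Bayesian fitting of sequencing counts obtained after protease digestion of designed mini-proteins. Unfolding free energy was derived by comparison with a sequence-predicted unfolded-state K50 and a shared folded-state K50, for each protease or both combined. The mini-proteins were under 80 residues, had no cysteine, were carried in a PA-tagged cDNA display construct, and were kept only if AlphaFold2 dimer inter-PAE exceeded 15.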

[2] = folding stability dG unfold from chymotrypsin proteolysis; higher = more stable
Procedure, shortened: as §1

[3] = folding stability dG unfold (combined trypsin and chymotrypsin); higher = more stable
Procedure, shortened: as §1

Row | Sequence | folding stability dG unfold [1] | folding stability dG unfold [2] | folding stability dG unfold [3]
1 | SALIETAEELARELGVEAELVEIEEGEDVALLRIRLRVDGVPYYFLVRIERPGEDPRIFRVEILEVRPESAG [r14_387_TrMRF] | 3.67 ± 0.071 kcal/mol | 4.302 ± 0.034 kcal/mol | 4.066 ± 0.031 kcal/mol
2 | SAGGSASDVVPIDKKITITLPGGEKYEVTEMTVLPDGTVKMKIIKKSPNGNPTEEEITLSPEELVDLSAGGS [r16_498_JUSTAS] | 2.26 ± 0.083 kcal/mol | 2.594 ± 0.021 kcal/mol | 2.47 ± 0.058 kcal/mol
3 | SMPVGVEELAERLAEEIEKELSEKTGVPVKVEKITVEEDPATGTVTVTITLYLPDGKKIREESLTVPVLESA [r9_60_JUSTAS] | 1.59 ± 0.051 kcal/mol | 1.52 ± 0.037 kcal/mol | 1.53 ± 0.065 kcal/mol
4 | SAGGSAGGSAGGLLKLKLKLKYEFTFKDENGNTYKVEKELTLVLELPPINETGKKNLVLSAGGSAGGSAGGS [r10_168_TrMRF] | 2.07 ± 0.036 kcal/mol | 3.66 ± 0.063 kcal/mol | 3.12 ± 0.13 kcal/mol
5 | SAGGSAGGSPEVLASFPLKDGSVVIVARRPGEIRVLVVKSSDLENIPELKDIKVFPTFGDDPVSAGGSAGGS [r12_343_TrMRF] | 1.03 ± 0.041 kcal/mol | 1.18 ± 0.077 kcal/mol | 1.19 ± 0.05 kcal/mol
6 | SAGGSAGGSAMPKVTIKITVYNAETGELRTVTLTLPEEDMSLEEIAAALPPGWRIVKVELLSAGGSAGGSAG [r3_80_TrROS_Hall] | 3.46 ± 0.077 kcal/mol | 4.65 ± 0.074 kcal/mol | 4.34 ± 0.075 kcal/mol
7 | SAGGGQTIEIKFPVPNENYRVYLMVYDPDKPISVEPQRFDPPDGEVTDKIKLPPDVKIGFMAFPPEDMSAGG [r13_977_TrROS] | 0.631 ± 0.033 kcal/mol | 0.966 ± 0.13 kcal/mol | 0.823 ± 0.048 kcal/mol
8 | SAGGMMTIEELKKLPPGAKVGDKIKIRNPATGETFTVTVLPDGRIKIEVDGKIYELPPGAEIVEIEKSAGGS [r8_162_TrROS_Hall] | 1.93 ± 0.086 kcal/mol | 2.36 ± 0.076 kcal/mol | 2.17 ± 0.13 kcal/mol
9 | SKTIVIELENIEDMTKEELKNLIKELAEKGETVKVTILNKDGKEVKTIEIKPGEIVPFPKGSKVLIKIEKSA [r9_264_TrROS_Hall] | 1.42 ± 0.062 kcal/mol | 1.49 ± 0.036 kcal/mol | 1.37 ± 0.15 kcal/mol
10 | SAGGNLDKEFVRDIIENFGFTRIEVEEHPNRKVVTFRFENMDVVIRPDGQIEIENPGGEPVFQIEVPSAGGS [r8_147_TrROS] | 1.31 ± 0.031 kcal/mol | 1.63 ± 0.11 kcal/mol | 1.53 ± 0.21 kcal/mol
11 | SAGTITADDITEIEMQWDPGNGYVQIEIEFPNGYTVNAWMPNDKIEIEVWYPNGKKVEIEFEIKPPGASAGG [r19_121_TrROS] | 1.72 ± 0.22 kcal/mol | 2.74 ± 0.18 kcal/mol | 2.39 ± 0.38 kcal/mol
12 | MVLDAGISRKDFINNKPIKVETALKKLAEILGGPNFKPKVKPSKKDYLVAVIELPDGRKLLLKDDKDIKISS [r1_168_TrMRF] | 0.514 ± 0.12 kcal/mol | -0.108 ± 0.14 kcal/mol | 0.377 ± 0.14 kcal/mol
13 | SAETRTLTIRIPAKDLTPEQIRALLRALLPEDATITEVRIERDEDGYITVTIVVTNPDGSKQEIRLVFPSAG [r14_30_TrROS_Hall] | 2.527 ± 0.024 kcal/mol | 2.64 ± 0.031 kcal/mol | 2.6 ± 0.085 kcal/mol
14 | SAKKITLTPPNGKKITITVHPDGSITITYEKGKITLPGHPGAKIKKATVDPKKGYITIIVNDKPIVIPISAG [r14_276_TrMRF] | 1.66 ± 0.044 kcal/mol | 2.83 ± 0.071 kcal/mol | 2.39 ± 0.12 kcal/mol
15 | SAGGSAGGSAGLKLLEKELRVLTYDPETGSLSESTLRVPVLLVPPVPVPVLDPNGGLTLASAGGSAGGSAGG [r11_307_TrMRF] | -0.696 ± 0.27 kcal/mol | 0.407 ± 0.14 kcal/mol | 0.143 ± 0.11 kcal/mol
16 | SAGGMVNLRLYNPATGEPIDFPVPKDVVEEMLKNGDLAALEALFPGFPIAKVEVDEGEEVPAVPPDEASAGG [r13_629_TrMRF] | 0.776 ± 0.032 kcal/mol | 0.0323 ± 0.15 kcal/mol | 0.462 ± 0.14 kcal/mol
17 | SAGNIKIEDIEPNDDYYTLVIKAPENGRTIMIQYNPNNNRIPIMIFPPGGVRTIPIPMNDIEDFLKEILSAG [r5_769_TrROS] | 0.79 ± 0.086 kcal/mol | 0.903 ± 0.049 kcal/mol | 0.893 ± 0.22 kcal/mol
18 | SASMTLTIPLPLKPGDRVVVEATHPLGYGFETEELPDGSVRLTLTVPTPDAPPATLHIRVYEPNTGKLASAG [r14_39_TrMRF] | 2.28 ± 0.051 kcal/mol | 3.24 ± 0.056 kcal/mol | 2.85 ± 0.1 kcal/mol
19 | SASLTLTITLPDGAKITSITVEEVDGELVLTEITVETTNENGEKTTVTRTIVLKLPPAPPAHPDDPALKSAG [r14_95_TrROS_Hall] | 2.13 ± 0.13 kcal/mol | 2.63 ± 0.12 kcal/mol | 2.45 ± 0.15 kcal/mol
20 | SAGEEIAKRLAEELKEKGYEVEVKVTVEYDEETGEVTITIEIKVKPKPAPPVKIEKKLEGMSEEEKKALSAG [r5_413_TrROS_Hall] | 0.113 ± 0.12 kcal/mol | 0.137 ± 0.084 kcal/mol | 0.187 ± 0.29 kcal/mol
21 | SAGGSAGGSSAPPGEVRTEAVSLTVRSTVPITYPNSPTTTLSLTTTLTVTLTREVSPVRPEVESAGGSAGGS [r20_14_JUSTAS] | 2.88 ± 0.21 kcal/mol | 3.84 ± 0.085 kcal/mol | 3.34 ± 0.22 kcal/mol
